Test results taken from patent US20130209454A1 (CALIFORNIA INSTITUTE OF TECHNOLOGY, published 2013).
Like-named read-outs stand apart in the source and are kept apart here.

Assays:
Assay in all cases: cell-based or functional assay
[1] = biological target: HIV-1 Env of strain SC422661.8 (HIV-1)
[2] = biological target: HIV-1 Env of strain QH0692.42 (HIV-1)
[3] = biological target: HIV-1 Env of strain ZM214M.PL15 (HIV-1)
[4] = biological target: HIV-1 Env of strain T257-31 (HIV-1)
[5] = biological target: HIV-1 Env of strain CAP45.2.00.G3 (HIV-1)
[6] = biological target: HIV-1 Env of strain TRO.11 (HIV-1)
[7] = biological target: HIV-1 Env of strain AC10.0.29 (HIV-1)
[8] = biological target: HIV-1 Env of strain Ce2010_F5 (HIV-1)
[9] = biological target: HIV-1 Env of strain X2131_C1_B5 (HIV-1)
[10] = biological target: HIV-1 Env of strain C3347.c11 (HIV-1)
[11] = biological target: HIV-1 Env of strain 231966.c02 (HIV-1)
[12] = biological target: HIV-1 Env of strain 6545.v4.cl (HIV-1)
[13] = biological target: HIV-1 Env of strain ZM247v1(Rev-) (HIV-1)
[14] = biological target: HIV-1 Env of strain R2184.c04 (HIV-1)
[15] = biological target: HIV-1 Env of strain 620345.c01 (HIV-1)
[16] = biological target: HIV-1 Env of strain CNE21 (HIV-1)
[17] = biological target: HIV-1 Env of strain Ce0393_C3 (HIV-1)
[18] = biological target: HIV-1 Env of strain CNE53 (HIV-1)
[19] = biological target: HIV-1 Env of strain ZM109F.PB4 (HIV-1)
[20] = biological target: HIV-1 Env of strain SC422661.8 (HIV-1); remark: listed apart in the source
[21] = biological target: HIV-1 Env of strain ZM197M.PB7 (HIV-1)
[22] = biological target: HIV-1 Env of strain P1981_C5_3 (HIV-1)
[23] = biological target: HIV-1 Env of strain CNE17 (HIV-1)
[24] = biological target: HIV-1 Env of strain ZM249M.PL1 (HIV-1)
[25] = biological target: HIV-1 Env of strain WEAU_d15_410_787 (HIV-1)
[26] = biological target: HIV-1 Env of strain ZM214M.PL15 (HIV-1); remark: listed apart in the source
[27] = biological target: HIV-1 Env of strain 231965.c01 (HIV-1)
[28] = biological target: HIV-1 Env of strain Ce0682_E4 (HIV-1)
[29] = biological target: HIV-1 Env of strain T257-31 (HIV-1); remark: listed apart in the source
[30] = biological target: HIV-1 Env of strain Ce1176_A3 (HIV-1)
[31] = biological target: HIV-1 Env of strain 3817.v2.c59 (HIV-1)
[32] = biological target: HIV-1 Env of strain Du172.17 (HIV-1)
[33] = biological target: HIV-1 Env of strain Du422.1 (HIV-1)
[34] = biological target: HIV-1 Env of strain PVO.4 (HIV-1)
[35] = biological target: HIV-1 Env of strain ZM233M.PB6 (HIV-1)
[36] = biological target: HIV-1 Env of strain 3103.v3.c10 (HIV-1)
[37] = biological target: HIV-1 Env of strain Ce703010054_2A2 (HIV-1)
[38] = biological target: HIV-1 Env of strain TROJO4551.58 (HIV-1)
[39] = biological target: HIV-1 Env of strain AC10.0.29 (HIV-1); remark: listed apart in the source
[40] = biological target: HIV-1 Env of strain CNE30 (HIV-1)
[41] = biological target: HIV-1 Env of strain RHPA4259.7 (HIV-1)
[42] = biological target: HIV-1 Env of strain Q23.17 (HIV-1)
[43] = biological target: HIV-1 Env of strain ZM135M.PL10a (HIV-1)

B1: NIH45-46 IgG (antibody, V domains shown)
VH: QVRLSQSGGQMKKPGESMRLSCRASGYEFLNCPINWIRLAPGRRPEWMGWLKPRGGAVNYARKFQGRVTMTRDVYSDTAFLELRSLTSDDTAVYFCTRGKYCTARDYYNWDFEHWGRGAPVTVSS
VL: EIVLTQSPATLSLSPGETAIISCRTSQSGSLAWYQQRPGQAPRLVIYSGSTRAAGIPDRFSGSRWGADYNLSISNLESGDFGVYYCQQYEFFGQGTKVQVDI
neutralization IC50 [1]: 0.05 µg/mL | neutralization IC50 [2]: 0.7 µg/mL | neutralization IC50 [3]: 0.3 µg/mL | neutralization IC50 [4]: 0.5 µg/mL | neutralization IC50 [5]: > 50 µg/mL | neutralization IC50 [6]: 1.9 µg/mL | neutralization IC50 [7]: 0.9 µg/mL | neutralization IC50 [8]: 0.101 µg/mL | neutralization IC50 [9]: 0.23 µg/mL | neutralization IC50 [10]: 0.029 µg/mL | neutralization IC50 [11]: 1.64 µg/mL | neutralization IC50 [12]: > 50 µg/mL | neutralization IC50 [13]: 2.94 µg/mL | neutralization IC50 [14]: 0.034 µg/mL | neutralization IC50 [15]: > 50 µg/mL | neutralization IC50 [16]: 6.01 µg/mL | neutralization IC50 [17]: 0.334 µg/mL | neutralization IC50 [18]: 0.008 µg/mL | neutralization IC50 [19]: 0.095 µg/mL | neutralization IC50 [20]: 0.06 µg/mL | neutralization IC50 [21]: 0.15 µg/mL | neutralization IC50 [22]: 0.08 µg/mL | neutralization IC50 [23]: 0.261 µg/mL | neutralization IC50 [24]: 0.017 µg/mL | neutralization IC50 [25]: 0.005 µg/mL | neutralization IC50 [26]: 0.17 µg/mL | neutralization IC50 [27]: 0.051 µg/mL | neutralization IC50 [28]: 0.054 µg/mL | neutralization IC50 [29]: 0.49 µg/mL | neutralization IC50 [30]: 0.93 µg/mL | neutralization IC50 [31]: > 50 µg/mL | neutralization IC50 [32]: > 50 µg/mL | neutralization IC50 [33]: > 50 µg/mL | neutralization IC50 [34]: 0.12 µg/mL | neutralization IC50 [35]: 2.5 µg/mL | neutralization IC50 [36]: 1.77 µg/mL | neutralization IC50 [37]: 0.159 µg/mL | neutralization IC50 [38]: 0.04 µg/mL | neutralization IC50 [39]: 0.56 µg/mL | neutralization IC50 [40]: 0.309 µg/mL | neutralization IC50 [41]: 0.017 µg/mL | neutralization IC50 [42]: 0.14 µg/mL | neutralization IC50 [43]: 0.59 µg/mL
